Data on 1 molecule can be found in patent US20090011979A1 (published 2009).

For one test, the target named is T1, mouse IL-18 (mouse, UniProt P70380 36-192).
T1 chain: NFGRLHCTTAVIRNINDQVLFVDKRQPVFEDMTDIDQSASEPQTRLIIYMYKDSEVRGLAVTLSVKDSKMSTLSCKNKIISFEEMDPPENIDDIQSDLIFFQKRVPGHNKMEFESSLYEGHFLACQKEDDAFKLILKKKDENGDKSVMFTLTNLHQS
The test can be described thus: SPR. In general terms: Surface plasmon resonance follows binding to a sensor surface in real time, without labels.

The next test addresses human IL-18 (human, UniProt Q14116 37-193). The test can be described thus: SPR.

Chain of human IL-18 (Q14116 37-193): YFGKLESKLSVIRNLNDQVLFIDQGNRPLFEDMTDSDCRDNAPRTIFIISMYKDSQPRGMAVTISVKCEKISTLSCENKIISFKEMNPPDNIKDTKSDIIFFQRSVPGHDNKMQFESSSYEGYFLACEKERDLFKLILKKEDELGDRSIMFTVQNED

B1: untagged YCI (YMTV IL-18 bp, YMTV Cytokine Inhibitor, without tag) (other)
chain: EKECDKHRSVNIQVPMKETSEVLLRCTGSSYFKHFSYVYWLVGESETVDQLQQNSGYGETSHPSKPHECGNLPSADLVLTNMTEKMRDTKLTCVLMDPDGHIDESLVLREVWDCFNKT
B1: the dissociation constant (Kd) – broadly, the concentration at which binding is half-saturated – came out at 7.6 nM with mouse IL-18 and 8.13 nM in the test with human IL-18.
